Patent US20240263191

Target: KLF15 (hKLF15) (Homo sapiens) (UniProt Q9UIH9)
Test: cell_activity
Conditions: AAV8-GNAT1-hKLF15 subretinal in pig, 2x10^10 gc, 15 days; 38% repression of protein

Sequence of KLF15 (hKLF15) (Homo sapiens) (Q9UIH9 whole entry): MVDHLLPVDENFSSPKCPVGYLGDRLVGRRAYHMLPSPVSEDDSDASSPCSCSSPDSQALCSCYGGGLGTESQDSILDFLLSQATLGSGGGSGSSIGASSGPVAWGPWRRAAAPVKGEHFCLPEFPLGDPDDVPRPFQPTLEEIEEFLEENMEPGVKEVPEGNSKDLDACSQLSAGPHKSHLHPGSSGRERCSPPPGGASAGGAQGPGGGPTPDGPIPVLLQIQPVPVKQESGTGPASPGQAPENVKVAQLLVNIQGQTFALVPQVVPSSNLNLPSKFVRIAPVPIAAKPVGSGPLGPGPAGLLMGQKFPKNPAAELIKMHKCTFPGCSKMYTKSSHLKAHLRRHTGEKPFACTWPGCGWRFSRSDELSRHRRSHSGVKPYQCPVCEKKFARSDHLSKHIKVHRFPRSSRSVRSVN

Question: How did the activity (% repression of Rho transcript) turn out when “endogenous porcine Rho promoter (hRHO-cis highly conserved)” was run?
Answer: 45
